Biological target: human HER3 receptor (human) (UniProt P21860)
Assay: cell-based or functional assay

For “neuregulin-1 (from UniProt Q02297 177-241) (ligand)”, the fold induction of 6×JNK-Luc reporter activity at 100 ng/ml NRG1 was 4.2 fold and the fold induction of JNK-Luc (3 copies of AP-1) reporter activity at 100 ng/ml NRG1 was 2.6 fold.

— patent publication US20180274043A1
